Measurements from patent US10010560 (dated 2018).

How the values were obtained:
HSP70 (ADP-bound) = HSP70 (ADP-bound) (human); assay: ITC, ADP
HSP70 (ATP-bound) = HSP70 (ATP-bound) (human); assay: ITC, ATP
Sequence of HSP70 (ATP-bound) (human) (chain, as listed by the source): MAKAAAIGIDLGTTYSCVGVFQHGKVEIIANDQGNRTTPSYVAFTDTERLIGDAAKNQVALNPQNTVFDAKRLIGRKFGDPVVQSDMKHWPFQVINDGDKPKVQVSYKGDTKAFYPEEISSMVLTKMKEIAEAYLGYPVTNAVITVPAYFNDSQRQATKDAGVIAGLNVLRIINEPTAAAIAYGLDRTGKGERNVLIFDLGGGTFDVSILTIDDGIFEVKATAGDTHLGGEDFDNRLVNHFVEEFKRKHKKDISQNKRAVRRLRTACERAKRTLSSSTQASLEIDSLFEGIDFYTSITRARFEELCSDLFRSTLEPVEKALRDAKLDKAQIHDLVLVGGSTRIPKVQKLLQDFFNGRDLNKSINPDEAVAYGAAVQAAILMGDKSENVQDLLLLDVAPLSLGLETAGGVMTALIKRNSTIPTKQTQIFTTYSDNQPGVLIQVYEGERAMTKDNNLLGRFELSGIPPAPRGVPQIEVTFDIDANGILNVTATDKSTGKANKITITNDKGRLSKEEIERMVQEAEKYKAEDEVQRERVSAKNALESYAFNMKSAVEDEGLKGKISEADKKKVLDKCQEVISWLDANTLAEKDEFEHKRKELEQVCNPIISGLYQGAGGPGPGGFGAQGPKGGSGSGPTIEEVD

Sequence of HSP70 (ADP-bound) (human) (chain, as listed by the source): as above

Kd (HSP70 (ADP-bound)): 10 µM | Kd (HSP70 (ATP-bound)): 1250 µM
B1: NRLLLTG peptide (peptide)
chain: NRLLLTG
